B1: LOXL2 (parent)
chain: HISSCKLGPQVSLDPMKNVTCENG

Variants of: B1
Test: protein stability index of a GFP-peptide fusion (GPS, HEK-293T) (PSI 1-6); higher = more stable
Details: c terminus: a fixed tail appended
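Further: lentivirally expressed fusions sorted by FACS into six bins by GFP to DsRed ratio, PSI derived from sequencing read proportions per bin multiplied by bin number.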

Protein stability index: each site, then its substitutions
H1: P 4.33, W 3.42, K 4.22, T 4.07, R 3.95, Q 3.95, Y 2.46, V 3.72, M 3.95, S 4.14, N 4.52, L 3.29
D14: T 3.62, N 3.33, H 3.61, W 2.14, I 3.44, G 3.45, Y 2.8, C 2.95, P 3.78, E 4.12, Q 3.58, K 3.5, S 3.65, L 3.22, V 3.69, M 3.22, F 2.46, A 3.51, R 3.33
S12: C 3.43, N 3.9, V 3.92, T 4.34, L 3.31, P 4.18, M 3.57, R 3.48, Y 3.24, G 3.93, Q 4.44, A 4.3, D 3.72, K 3.9, F 3.27, W 2.47, H 4, E 4.48, I 3.68
V11: K 3.48, N 4.33, P 4.34, D 4.35, M 4.15, F 3.56, H 4.41, R 3.94, G 3.25, L 3.72, A 4.03, S 4.09, I 3.72, T 4.07, W 3.44, Q 4.4, C 4.27, Y 3.67, E 4.58
K17: T 4.19, N 4.3, H 4.03, L 3.77, F 2.97, E 4.28, Q 3.81, C 3.63, M 3.22, G 3.45, V 3.67, P 4.01, A 3.98, R 3.55, D 4.66, Y 3.44, W 3.05, I 3.3, S 4.02
M16: G 4.22, L 3.78, Q 4.43, S 4.23, E 5.1, N 4.61, V 4.34, R 4.47, A 4.15, H 4.11, P 4.16, T 4.04, C 3.94, K 4.5, F 3.74, D 4.75, W 2.86, Y 3.86, I 3.68
C5: Q 4.49, T 4.54, M 4.2, S 4.66, E 4.95, N 3.29, I 3.87, K 4.53, D 4.77, F 3.83, W 3, A 4.39, P 4.01, G 4.17, H 4.37, R 4.1, Y 4, L 4.32, V 4.31
L13: V 4.06, R 3.8, P 4.22, T 4.61, Y 3.5, F 3.52, N 4.42, K 4.15, A 4.43, H 4.34, C 3.68, D 4.34, W 3.58, S 4.45, M 4.24, I 4.1, G 4.61, Q 4.28, E 4.58
K6: H 4, S 4.34, D 4.9, Q 4.04, F 2.98, N 4.32, Y 3.44, G 3.97, I 3.57, R 3.94, E 4.35, C 3.73, W 2.64, M 4.15, T 4.36, V 3.95, P 4.48, L 4.22, A 3.96
L7: D 4.15, N 4.37, S 3.96, K 4.33, V 4.19, T 4.54, E 4.79, Y 3.74, G 4.76, C 3.59, W 2.28, A 4.62, Q 4.32, R 4.15, I 4.57, P 4.51, F 4.1, M 4.31, H 4.19
P9: D 4.05, K 4.25, T 3.95, M 2.69, E 4.36, A 3.85, I 2.63, F 2.65, N 3.71, W 2.2, G 3.51, Q 3.87, R 3.76, L 2.84, Y 2.83, C 3.23, H 3.73, S 3.05, V 3.23
N18: W 2.88, C 3.11, D 4.34, K 4.19, V 3.78, R 3.44, M 3.42, S 3.2, T 3.89, Q 4.2, A 3.76, F 2.82, G 3.81, H 3.81, P 3.92, L 3.12, E 3.82, I 3.4
I2: A 4.35, P 3.76, W 3.31, H 3.53, E 4.48, C 3.44, D 4.58, L 4.24, N 3.76, Q 4.25, S 4.34, K 3.4, Y 3.61, G 4.53, V 4.21, F 3.58, M 4.41, T 4.54, R 4.11
G8: K 3.61, I 3.86, W 1.87, H 3.63, P 4.01, D 4.34, Q 3.7, V 3.62, E 4.53, M 3.95, S 3.66, T 4.45, A 3.77, F 3.04, L 4.02, R 3.29, Y 3.4, N 4.07, C 3.15
S4: G 3.79, R 3.52, L 3.6, T 3.65, N 3.47, P 4.22, E 4.37, M 3.94, Y 3.44, V 3.91, H 3.98, A 3.65, F 3.34, Q 3.69, D 3.61, I 3.02, K 3.96, W 2.32, C 3.78
Q10: W 2.08, F 3.07, T 3.36, I 3.54, Y 3.07, R 3.85, M 3.37, A 4.29, N 3.92, G 4.53, H 3.52, L 3.32, C 3.19, K 3.77, D 4.58, P 3.68, V 3.56, E 4.42, S 4.33
S3: D 4.39, M 3.3, E 4.24, I 3.39, C 2.78, A 3.69, T 3.59, V 3.12, P 3.99, H 3.51, Q 3.92, Y 2.62, W 3.14, R 3.48, F 2.94, L 3.19, N 4.24, K 4.01, G 4.2
P15: C 3.43, N 4.11, Q 4.03, M 3.74, F 3.04, V 3.88, R 3.82, E 4.64, Y 2.84, S 3.94, K 3.93, I 3.41, W 3.08, A 3.86, H 4.02, G 3.93, L 3.62, T 4.14, D 4.19
